The results in this text go back to PMC6499326 (Genes & Development, 2019).

As a reminder, the stoichiometry N is the number of molecules, sites or subunits per partner or assembly.

The target of one data set is T1, His-NRDE2^111–1164 (human, UniProt Q9H7Z3 111-1164).
T1 sequence: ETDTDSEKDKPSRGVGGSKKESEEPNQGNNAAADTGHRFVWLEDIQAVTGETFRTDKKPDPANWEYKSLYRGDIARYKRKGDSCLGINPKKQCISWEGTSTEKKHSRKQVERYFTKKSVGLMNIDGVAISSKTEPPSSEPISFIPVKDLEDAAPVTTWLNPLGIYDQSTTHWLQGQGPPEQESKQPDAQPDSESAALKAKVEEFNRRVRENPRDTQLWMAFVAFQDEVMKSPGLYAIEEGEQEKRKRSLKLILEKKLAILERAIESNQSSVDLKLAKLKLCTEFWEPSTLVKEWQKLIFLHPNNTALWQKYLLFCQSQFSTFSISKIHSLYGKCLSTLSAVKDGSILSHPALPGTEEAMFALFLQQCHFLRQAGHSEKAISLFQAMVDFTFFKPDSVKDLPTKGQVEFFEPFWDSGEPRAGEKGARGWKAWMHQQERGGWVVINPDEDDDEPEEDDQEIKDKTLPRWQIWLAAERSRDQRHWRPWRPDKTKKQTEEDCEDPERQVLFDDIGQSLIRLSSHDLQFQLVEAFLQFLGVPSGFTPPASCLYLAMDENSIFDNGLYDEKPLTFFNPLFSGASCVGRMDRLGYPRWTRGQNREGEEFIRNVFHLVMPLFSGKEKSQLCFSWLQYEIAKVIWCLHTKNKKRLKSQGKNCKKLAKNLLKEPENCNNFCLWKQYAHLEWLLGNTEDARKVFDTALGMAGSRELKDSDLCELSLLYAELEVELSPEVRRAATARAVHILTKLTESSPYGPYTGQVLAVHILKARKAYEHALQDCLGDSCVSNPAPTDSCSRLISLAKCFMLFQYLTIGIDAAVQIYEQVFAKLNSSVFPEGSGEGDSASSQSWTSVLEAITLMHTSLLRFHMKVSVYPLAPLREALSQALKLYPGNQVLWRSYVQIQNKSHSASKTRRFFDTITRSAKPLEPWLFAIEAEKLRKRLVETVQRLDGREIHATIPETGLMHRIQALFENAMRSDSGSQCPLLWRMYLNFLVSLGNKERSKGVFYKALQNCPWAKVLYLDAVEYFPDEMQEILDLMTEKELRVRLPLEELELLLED
The data set can be described thus: pull-down.

Another data set concerns the target T2, His-MTR4^71–1042 (human, UniProt P42285 71-1042).
T2 sequence: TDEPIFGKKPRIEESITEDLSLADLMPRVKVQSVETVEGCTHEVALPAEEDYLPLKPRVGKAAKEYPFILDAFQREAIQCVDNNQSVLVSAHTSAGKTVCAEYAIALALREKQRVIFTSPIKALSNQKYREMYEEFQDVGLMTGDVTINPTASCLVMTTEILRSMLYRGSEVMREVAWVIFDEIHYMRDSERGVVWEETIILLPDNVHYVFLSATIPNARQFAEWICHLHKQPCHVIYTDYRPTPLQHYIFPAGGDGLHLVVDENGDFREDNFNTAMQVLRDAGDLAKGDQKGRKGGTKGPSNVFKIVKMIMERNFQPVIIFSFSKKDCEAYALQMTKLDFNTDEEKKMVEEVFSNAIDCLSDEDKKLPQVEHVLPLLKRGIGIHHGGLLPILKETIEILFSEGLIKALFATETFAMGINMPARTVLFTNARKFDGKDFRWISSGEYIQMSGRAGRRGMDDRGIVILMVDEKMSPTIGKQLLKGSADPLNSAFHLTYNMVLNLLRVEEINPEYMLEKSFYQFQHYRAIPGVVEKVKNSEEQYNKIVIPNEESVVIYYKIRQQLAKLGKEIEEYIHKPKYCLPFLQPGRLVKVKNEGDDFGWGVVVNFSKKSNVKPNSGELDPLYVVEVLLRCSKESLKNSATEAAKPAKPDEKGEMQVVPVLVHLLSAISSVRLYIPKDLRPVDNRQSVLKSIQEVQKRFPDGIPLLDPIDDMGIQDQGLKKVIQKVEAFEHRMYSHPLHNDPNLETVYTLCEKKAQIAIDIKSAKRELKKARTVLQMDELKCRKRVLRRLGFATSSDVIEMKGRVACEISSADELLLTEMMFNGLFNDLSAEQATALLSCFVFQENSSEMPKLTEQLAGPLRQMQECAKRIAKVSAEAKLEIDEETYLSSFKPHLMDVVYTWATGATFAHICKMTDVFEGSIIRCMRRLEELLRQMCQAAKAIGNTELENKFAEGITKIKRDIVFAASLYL
Briefly: SEC. (Size exclusion chromatography separates by hydrodynamic size, large species first.)

The target of another data set is T3, MTR4;NRDE2 MID (Homo sapiens;Homo sapiens, UniProt P42285;Q9H7Z3 71-1042;163-266, |).
T3 sequence 1: T2 sequence
T3 sequence 2: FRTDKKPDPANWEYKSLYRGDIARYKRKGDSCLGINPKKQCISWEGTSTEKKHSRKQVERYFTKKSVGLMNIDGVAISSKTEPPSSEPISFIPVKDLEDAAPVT
Briefly: EMSA. (A gel shift assay detects complexes by their altered migration in electrophoresis.)

B1: MBP-MTR4^FL (natural protein)
chain: MADAFGDELFSVFEGDSTTAAGTKKDKEKDKGKWKGPPGSADKAGKRFDGKLQSESTNNGKNKRDVDFEGTDEPIFGKKPRIEESITEDLSLADLMPRVKVQSVETVEGCTHEVALPAEEDYLPLKPRVGKAAKEYPFILDAFQREAIQCVDNNQSVLVSAHTSAGKTVCAEYAIALALREKQRVIFTSPIKALSNQKYREMYEEFQDVGLMTGDVTINPTASCLVMTTEILRSMLYRGSEVMREVAWVIFDEIHYMRDSERGVVWEETIILLPDNVHYVFLSATIPNARQFAEWICHLHKQPCHVIYTDYRPTPLQHYIFPAGGDGLHLVVDENGDFREDNFNTAMQVLRDAGDLAKGDQKGRKGGTKGPSNVFKIVKMIMERNFQPVIIFSFSKKDCEAYALQMTKLDFNTDEEKKMVEEVFSNAIDCLSDEDKKLPQVEHVLPLLKRGIGIHHGGLLPILKETIEILFSEGLIKALFATETFAMGINMPARTVLFTNARKFDGKDFRWISSGEYIQMSGRAGRRGMDDRGIVILMVDEKMSPTIGKQLLKGSADPLNSAFHLTYNMVLNLLRVEEINPEYMLEKSFYQFQHYRAIPGVVEKVKNSEEQYNKIVIPNEESVVIYYKIRQQLAKLGKEIEEYIHKPKYCLPFLQPGRLVKVKNEGDDFGWGVVVNFSKKSNVKPNSGELDPLYVVEVLLRCSKESLKNSATEAAKPAKPDEKGEMQVVPVLVHLLSAISSVRLYIPKDLRPVDNRQSVLKSIQEVQKRFPDGIPLLDPIDDMGIQDQGLKKVIQKVEAFEHRMYSHPLHNDPNLETVYTLCEKKAQIAIDIKSAKRELKKARTVLQMDELKCRKRVLRRLGFATSSDVIEMKGRVACEISSADELLLTEMMFNGLFNDLSAEQATALLSCFVFQENSSEMPKLTEQLAGPLRQMQECAKRIAKVSAEAKLEIDEETYLSSFKPHLMDVVYTWATGATFAHICKMTDVFEGSIIRCMRRLEELLRQMCQAAKAIGNTELENKFAEGITKIKRDIVFAASLYL
For the molecule B1, in the data set with His-NRDE2^111–1164, the binding result was “binds”.

B2: untagged NRDE2^111–1164 (domain or fragment)
chain: T1 sequence
For the molecule B2, the “stoichiometry N” value in the data set with His-MTR4^71–1042 stood at 1.

B3: 5' FAM RNA (EMSA) (ssRNA)
RNA: UGUCUGACUGAAGGACCAGGUGCUGUCUGA
On to B3, for which the binding signal in the data set with MTR4;NRDE2 MID was ~8 fold higher affinity than MTR4 alone.
